Data published in publication PMC7608815.

What was measured:
purified protein [1] = substrate: CC(C)(COP(=O)(O)OP(=O)(O)OC[C@H]1O[C@@H](n2cnc3c(N)ncnc32)[C@H](O)[C@@H]1OP(=O)(O)O)[C@@H](O)C(=O)NCCC(=O)NCCSC(=O)CC(=O)O; assay: purified protein; conditions: 200 uM p-coumaroyl-CoA, 30 C, 120 nM enzyme
purified protein [2] = substrate: COC(=O)c1cccc(O)c1N; assay: purified protein; assay type: biochemical, Solanum lycopersicum; conditions: 200 or 500 uM p-coumaroyl-CoA, 30 C, aminoacylation (amide synthesis)

B1: SlCHS (Solanum lycopersicum) (protein)
chain: MVTVEEYRKAQRAEGPATILAIGTSTPSNCVDQSTYPDYYFRITNSEHKTELKEKFKRMCDKSMIKKRYMHLTEEILKENPNMCAYMAPSLDARQDIVVVEVPKLGKRGTQKAIKEWGQPKSKITHLVFCTTSGVDMPACDYQLAKLLPVRPSVKRLMMYQQGCFAGGTVLRLAKDLAENNKGARVLVVCSEITAVTFRGPSESHLDSLVGQALFGDGAAAIIIGSDPIIGVERPLFELVSAAQTLVPDSEGAIDGHLREVGLTFHLLKDVPGLISKNIEKSLLEAFQPLGISDWNSLFWIAHPGGPAILDQVELKLGLKPEKLRATREVLSNYGNMSSACVLFILDEMRKASTKEGLGTTGEGLEWGVLFGFGPGLTVETVVLHSVAA
Km (purified protein [1]): 21.34 µM
kcat (purified protein [1]): 0.00157 s⁻¹
Km (purified protein [2]): 3060 µM
kcat (purified protein [2]): 0.00603 s⁻¹
